Series [1] deals with the molecule itself. Description: cross-linking; thioredoxin-tagged proteins at 5 μM, increasing concentrations of glutaraldehyde, 10 min at room temperature, 20 mM HEPES pH 7.7, 150 mM NaCl, 20 mM imidazole, 1 mM β-mercaptoethanol; SDS-PAGE, silver staining.
Series [2] concerns the molecule itself. Description: SEC; Superdex S200 size-exclusion chromatography of purified CLAMP derivatives.
Series [3] concerns the molecule itself. As to the kind of experiment: SAXS; in solution, BM29 BioSAXS beamline (ESRF); molecular weight from extrapolated I0; CLAMP 1-153 at 2.3 mg/mL, CLAMP 1-113 at 1.0 and 7.0 mg/mL, CLAMP 87-153 at 2.5 and 10.0 mg/mL.

This is an account of results in PMC8998743, “Dimerization Activity of a Disordered N-Terminal Domain from Drosophila CLAMP Protein” (International Journal of Molecular Sciences, 2022).

B1: thioredoxin-tagged CLAMP^1–127 (domain or fragment, D. melanogaster, UniProt Q9V9N4 1-127, looked up)
chain: MEDLTKNIIFTNAINGQPATIQYQTADGTILKQPKIEGQKTEQQPTFYYTTNGNGGTVNLAQLATTDDNKTCYIAQPVGGYNYALVNGMPLNQGAALGIATVDAQGRIQIVNQNKPIAANTISNISF
notes: Used in glutaraldehyde cross-linking with the thioredoxin tag on; source: E. coli BL21(DE3), purified
B1: the binding result in series [1] is on record as “binds”.

B2: CLAMP^1–127 (purified, tag cleaved) (domain or fragment, D. melanogaster, UniProt Q9V9N4 1-127, looked up)
chain: B1 chain
notes: source: E. coli BL21(DE3), purified (Ni-NTA, TEV cleavage, SOURCE15Q)
With B2, in series [2], the binding result is given as “binds”.

B3: CLAMP^1–113 (purified, tag cleaved) (domain or fragment, D. melanogaster, UniProt Q9V9N4 1-113, looked up)
chain: MEDLTKNIIFTNAINGQPATIQYQTADGTILKQPKIEGQKTEQQPTFYYTTNGNGGTVNLAQLATTDDNKTCYIAQPVGGYNYALVNGMPLNQGAALGIATVDAQGRIQIVNQ
notes: as for B2
Turning to B3, in series [3], the “stoichiometry N” value is 2.

B4: CLAMP^1–153 (purified, tag cleaved) (domain or fragment, D. melanogaster, UniProt Q9V9N4 1-153, looked up)
chain: MEDLTKNIIFTNAINGQPATIQYQTADGTILKQPKIEGQKTEQQPTFYYTTNGNGGTVNLAQLATTDDNKTCYIAQPVGGYNYALVNGMPLNQGAALGIATVDAQGRIQIVNQNKPIAANTISNISFKCDVCSDMFPHLALLNAHKRMHTDGE
notes: as for B2
As to B4, in series [3], the “stoichiometry N” value was 2.
